Key:
Experiment in all cases: SPR, ratio of KD to KD of WT
[1] = target: T1, FVII(a) WT (human, UniProt P08709 61-466)
T1 construct: also called wild type human FVII(a)
T1 sequence: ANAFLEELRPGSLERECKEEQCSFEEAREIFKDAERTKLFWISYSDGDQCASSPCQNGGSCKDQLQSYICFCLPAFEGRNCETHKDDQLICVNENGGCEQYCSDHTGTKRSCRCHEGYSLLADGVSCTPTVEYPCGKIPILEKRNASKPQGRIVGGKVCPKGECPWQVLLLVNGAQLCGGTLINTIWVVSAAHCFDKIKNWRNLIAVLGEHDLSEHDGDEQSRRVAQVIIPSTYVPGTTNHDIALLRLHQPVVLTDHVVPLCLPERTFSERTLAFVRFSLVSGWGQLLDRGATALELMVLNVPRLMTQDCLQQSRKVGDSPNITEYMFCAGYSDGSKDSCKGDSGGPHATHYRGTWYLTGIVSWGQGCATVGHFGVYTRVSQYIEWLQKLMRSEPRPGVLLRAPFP
Experimental: (§1) The running buffer was prepared by diluting 10-fold the 10×HBS-P buffer (supplied by GE Healthcare) and supplemented with 1 mg/ml BSA and 5 mM CaCl2 to give 10 mM HEPES, 150 mM NaCl, 0.05% v/v Polysorbate 20, pH 7.4, 5 mM CaCl2, 1 mg/ml bovine serum albumin (BSA). […] Regeneration of the chip was achieved using 10 mM HEPES, 150 mM NaCl, 20 mM EDTA, 0.05 v/v Polysorbate 20, pH 7.4. Binding data were analysed according to a 1:1 Kinetic model and steady state analysis using BiaEvaluation 4.1 supplied by the manufacturer (Biacore AB, Uppsala, Sweden). Wherever possible, ka, kd and KD values from 1:1 kinetic fitting model are reported. […] An amino acid residue is considered a hot-spot residue if substitution of that amino acid residue with alanine results in an affinity reduction of ten (10) fold or more relative to the wild type.

[2] = target: T2, FVII(a) variant G117A (human, UniProt P08709 61-466)
T2 construct: hFVII alanine variant in cell culture supernatant
T2 sequence: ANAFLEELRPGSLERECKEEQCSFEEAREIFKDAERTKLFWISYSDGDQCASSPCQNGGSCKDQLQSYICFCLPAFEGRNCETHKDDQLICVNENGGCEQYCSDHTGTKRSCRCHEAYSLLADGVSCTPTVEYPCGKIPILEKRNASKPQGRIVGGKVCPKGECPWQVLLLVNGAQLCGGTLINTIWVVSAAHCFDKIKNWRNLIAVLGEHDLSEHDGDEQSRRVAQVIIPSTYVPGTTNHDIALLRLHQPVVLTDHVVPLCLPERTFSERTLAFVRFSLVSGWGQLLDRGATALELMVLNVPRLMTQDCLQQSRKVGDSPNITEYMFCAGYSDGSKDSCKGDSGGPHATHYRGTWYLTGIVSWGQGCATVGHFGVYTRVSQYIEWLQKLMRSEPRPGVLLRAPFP
Experimental: as §1

[3] = target: T3, FVII(a) variant E394A (human, UniProt P08709 61-466)
T3 construct: hFVII alanine variant in cell culture supernatant
T3 sequence: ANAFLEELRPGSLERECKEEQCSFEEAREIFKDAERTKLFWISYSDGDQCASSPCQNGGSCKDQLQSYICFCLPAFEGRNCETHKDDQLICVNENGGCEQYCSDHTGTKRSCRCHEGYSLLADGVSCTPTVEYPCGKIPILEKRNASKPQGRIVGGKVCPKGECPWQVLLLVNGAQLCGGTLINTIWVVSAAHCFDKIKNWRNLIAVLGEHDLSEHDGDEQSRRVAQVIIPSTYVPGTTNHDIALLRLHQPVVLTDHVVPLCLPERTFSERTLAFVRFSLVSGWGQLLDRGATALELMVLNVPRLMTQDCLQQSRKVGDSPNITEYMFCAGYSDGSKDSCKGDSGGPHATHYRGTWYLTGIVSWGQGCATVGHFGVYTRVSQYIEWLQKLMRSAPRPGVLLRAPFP
Experimental: as §1

[4] = target: T4, FVII(a) variant V131A (human, UniProt P08709 61-466)
T4 construct: hFVII alanine variant in cell culture supernatant
T4 sequence: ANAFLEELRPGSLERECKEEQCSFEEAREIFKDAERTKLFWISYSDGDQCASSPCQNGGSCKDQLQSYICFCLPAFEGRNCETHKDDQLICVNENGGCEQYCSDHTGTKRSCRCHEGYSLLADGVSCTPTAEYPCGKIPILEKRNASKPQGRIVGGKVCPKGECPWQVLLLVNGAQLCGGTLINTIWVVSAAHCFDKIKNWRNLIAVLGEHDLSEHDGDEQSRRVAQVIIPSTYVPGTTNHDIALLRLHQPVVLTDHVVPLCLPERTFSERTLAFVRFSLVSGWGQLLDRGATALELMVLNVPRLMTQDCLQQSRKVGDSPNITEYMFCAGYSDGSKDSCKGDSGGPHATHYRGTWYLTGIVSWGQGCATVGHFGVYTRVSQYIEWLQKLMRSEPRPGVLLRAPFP
Experimental: as §1

[5] = target: T5, FVII(a) variant T130A (human, UniProt P08709 61-466)
T5 construct: hFVII alanine variant in cell culture supernatant
T5 sequence: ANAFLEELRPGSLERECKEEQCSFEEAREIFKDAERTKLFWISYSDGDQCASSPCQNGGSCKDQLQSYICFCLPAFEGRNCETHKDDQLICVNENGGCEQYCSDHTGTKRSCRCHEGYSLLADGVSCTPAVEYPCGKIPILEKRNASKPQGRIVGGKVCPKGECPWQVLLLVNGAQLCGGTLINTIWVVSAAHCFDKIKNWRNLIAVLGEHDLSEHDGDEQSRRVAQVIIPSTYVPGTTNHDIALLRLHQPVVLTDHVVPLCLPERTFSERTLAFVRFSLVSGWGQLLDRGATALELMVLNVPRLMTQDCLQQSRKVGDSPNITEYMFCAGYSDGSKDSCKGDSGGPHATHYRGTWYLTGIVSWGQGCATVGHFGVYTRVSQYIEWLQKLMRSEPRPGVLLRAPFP
Experimental: as §1

B1: mAb0842(OA) (antibody, human IgG4 S228P, kappa)
heavy: QVQLQESGPGLVKPSQTLSLTCTVSGYSISSDSAWSWIRQPPGKGLEWIGYIQYSGSTNYNPSLKSRVTISRDTSKNQFSLKLSSVTAADTAVYYCARSVNYYGNSFAVGYWGQGTLVTVSSASTKGPSVFPLAPCSRSTSESTAALGCLVKDYFPEPVTVSWNSGALTSGVHTFPAVLQSSGLYSLSSVVTVPSSSLGTKTYTCNVDHKPSNTKVDKRVESKYGPPCPPCPAPEFLGGPSVFLFPPKPKDTLMISRTPEVTCVVVDVSQEDPEVQFNWYVDGVEVHNAKTKPREEQFNSTYRVVSVLTVLHQDWLNGKEYKCKVSNKGLPSSIEKTISKAKGQPREPQVYTLPPSQEEMTKNQVSLSCAVKGFYPSDIAVEWESNGQPENNYKTTPPVLDSDGSFFLVSRLTVDKSRWQEGNVFSCSVMHEALHNHYTQKSLSLSLGK
light: EIVLTQSPATLSLSPGERATLSCRASQGISDYLHWYQQKPGEAPRLLIKYTSQPATGIPARFSGSGSGTDFTLTISSLEPEDFAVYYCQNGHSFPLTFGQGTKLEIKRTVAAPSVFIFPPSDEQLKSGTASVVCLLNNFYPREAKVQWKVDNALQSGNSQESVTEQDSKDSTYSLSSTLTLSKADYEKHKVYACEVTHQGLSSPVTKSFNRGEC
chain: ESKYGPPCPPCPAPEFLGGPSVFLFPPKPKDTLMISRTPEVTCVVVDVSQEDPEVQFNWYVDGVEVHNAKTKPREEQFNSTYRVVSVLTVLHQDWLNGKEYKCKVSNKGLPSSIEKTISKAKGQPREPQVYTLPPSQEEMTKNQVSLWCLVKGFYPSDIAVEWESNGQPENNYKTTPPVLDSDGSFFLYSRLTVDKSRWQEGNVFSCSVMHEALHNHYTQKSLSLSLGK
notes: also called monovalent humanized 11F2 antibody; one-armed anti-FVII(a) antibody
Fold diff (Variant/WT) [1]: 1 fold
Fold diff (Variant/WT) [2]: 1 fold
Fold diff (Variant/WT) [3]: 2.6 fold
Fold diff (Variant/WT) [4]: 17.1 fold
Fold diff (Variant/WT) [5]: 105 fold
